The target in assay [1] is BiShAb0201 (ShAb02 VNAR - (GGGGS)5 - ShAb01 VNAR - human IgG1 Fc) (nurse shark (Ginglymostoma cirratum)). Put plainly: BLI. On the technique in general: Biolayer interferometry detects binding as a change in optical thickness at a sensor tip.
In assay [2] the target is ShAb01H02K (knob-in-hole heterodimer of ShAb01-Fc and ShAb02-Fc) (nurse shark (Ginglymostoma cirratum)). Put plainly: BLI.

Usually Kd stands for the equilibrium constant for the complex coming apart. High values mean weaker binding, low ones tighter binding. As a reminder, the koff is a measure of how fast the partners let go of each other. Higher therefore signals a short-lived complex. Broadly, the kon is a measure of how fast the partners come together. Low readings indicate slow association, high ones fast association. In assay [1], “SARS-CoV-2 RBD B.1.1.7, Alpha (N501Y) (from UniProt P0DTC2 331-527) (domain or fragment)” had a Kd of 1.8 nM, a koff of 0.00037 s⁻¹ and a kon of 207000 M⁻¹ s⁻¹. Further, in assay [2], the dissociation constant Kd stood at 1.5 nM, the dissociation rate constant (koff) turned out to be 0.000513 s⁻¹ and the on-rate (kon) came to 341000 M⁻¹ s⁻¹.

In assay [1], “SARS-CoV-2 RBD B.1.351, Beta (K417N, E484K, N501Y) (from UniProt P0DTC2 331-527) (domain or fragment)” had a Kd of 2.1 nM, a koff of 0.000436 s⁻¹ and an on-rate (kon) of 206000 M⁻¹ s⁻¹. For the same substance, in assay [2], the Kd is 1.8 nM, the koff is 0.000538 s⁻¹ and the kon is 294000 M⁻¹ s⁻¹.

As to “SARS-CoV-2 RBD B.1.427/429, Epsilon (L452R) (from UniProt P0DTC2 331-527) (domain or fragment)”, in assay [1], the Kd worked out at 1.2 nM, the dissociation rate constant (koff) amounted to 0.000133 s⁻¹ and the kon was 109000 M⁻¹ s⁻¹. Further, in assay [2], the Kd amounted to 0.08 nM, the koff was determined as 1.21e-05 s⁻¹ and the kon turned out to be 156000 M⁻¹ s⁻¹.

As for “SARS-CoV-2 RBD B.1.525, Eta, Iota (E484K) (from UniProt P0DTC2 331-527) (domain or fragment)”, in assay [1], the equilibrium dissociation constant (Kd) amounted to 2 nM, the koff came to 0.000415 s⁻¹ and the kon is 210000 M⁻¹ s⁻¹. Also, in assay [2], the Kd was determined as 1.6 nM, the koff was 0.000511 s⁻¹ and the on-rate constant (kon) amounted to 310000 M⁻¹ s⁻¹.

On to “SARS-CoV-2 RBD B.1.617, Kappa (L452R, E484Q) (from UniProt P0DTC2 331-527) (domain or fragment)”, for which, in assay [1], the Kd worked out at 4.4 nM, the off-rate (koff) came out at 0.000238 s⁻¹ and the kon was 53600 M⁻¹ s⁻¹. In assay [2], this substance displayed a dissociation constant Kd of 2.2 nM, an off-rate constant (koff) of 0.000326 s⁻¹ and an on-rate (kon) of 151000 M⁻¹ s⁻¹.

In assay [1], “SARS-CoV-2 RBD B.1.617.2, Delta (L452R, T478K) (from UniProt P0DTC2 331-527) (domain or fragment)” showed an equilibrium dissociation constant (Kd) of 0.72 nM, a koff of 4.1e-05 s⁻¹ and an on-rate (kon) of 57000 M⁻¹ s⁻¹. In assay [2], the Kd was less than 0.001 nM, the koff is less than 1e-07 s⁻¹ and the kon stood at 90000 M⁻¹ s⁻¹.

As to “SARS-CoV-2 RBD E484K, N501Y (from UniProt P0DTC2 331-527) (domain or fragment)”, in assay [1], the equilibrium dissociation constant (Kd) amounted to 2.3 nM, the koff stood at 0.000412 s⁻¹ and the association rate constant (kon) came out at 177000 M⁻¹ s⁻¹. In assay [2], this substance displayed a Kd of 1.9 nM, a koff of 0.000512 s⁻¹ and an on-rate (kon) of 277000 M⁻¹ s⁻¹.

In assay [1], “SARS-CoV-2 RBD K417N (from UniProt P0DTC2 331-527) (domain or fragment)” gave a Kd of 1.7 nM, a dissociation rate constant (koff) of 0.000352 s⁻¹ and a kon of 211000 M⁻¹ s⁻¹. In assay [2], this substance came in with a Kd of 1.3 nM, a dissociation rate constant (koff) of 0.000457 s⁻¹ and a kon of 353000 M⁻¹ s⁻¹.

Take “SARS-CoV-2 RBD P.1, Gamma (K417T, E484K, N501Y) (from UniProt P0DTC2 331-527) (domain or fragment)”: in assay [1], the dissociation constant (Kd) came to 6.5 nM, the koff is 0.000508 s⁻¹ and the kon amounted to 78000 M⁻¹ s⁻¹. For the same substance, in assay [2], the dissociation constant Kd was 4.2 nM, the off-rate (koff) is 0.000305 s⁻¹ and the kon was 73500 M⁻¹ s⁻¹.

(Values after PMC9896449.)
